In the domain aggregation screens of Martell et al. (2025):

Assay: soluble fraction after stress (log2 fold change); higher = more stays soluble; pooled small domains, quantitative proteomics
Settings: stress: 50 degC
Method in brief: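 Pooled custom libraries of small protein domains were measured in a high-throughput format, with quantitative proteomics as the read-out. Each library was stressed at 50°C. Aggregation propensity is given as the base-two logarithm of the fold change in how much of each protein stays soluble after the stress. Higher values mean a larger share of the protein remains in solution.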

| Sequence | soluble fraction (log2) |
| --- | --- |
| HMARSKSRQSSVLESVPGLGPSRRRNLLRHFGGLQGVVKAGVEDLMAVRGISRTLAETVYDHLHPGS | -0.289 |
| HMARTIINLPLRNSVDESYNTTVNILQANGFKEVSYNGETVWKKGTGLLTAMQYIKIEFTDTTLVVSGWVQ | ≥ 0.62 |
| HMARTLSVTVSENYANMRLDSFLFESGLYPSRSKAVKQIESGKVFVNGNEPTKKTIVVANDFIVYEEYAEE | -1.06 |
| HMARTTIATPWDKINDLLQGGLGNGDFGLIFGNPGGGKSWSLVALGGFAVKLGYNVIHYTLE | -0.054 |
| HMASAEDDLTRRARKLLTTSSMLKTLQPDTGERLQWLPQVVRLLAEGVEAPRIVVLIRRAMESG | -1.04 |
| HMASALDFGRYVRSQYSLQEFPLILIAPLNDPHPKEVVRELFNLYLTKPITRSRLFDSLMTVLG | -0.753 |
| HMASDQGAGALREVSAFFEKHGRVPDPDAVDHDEMRLGSIWASIKSAPTDQMRLEDRFGLLD | 0.1 |
| HMASDYYTTTANLNLRSGAGTTYGSLIIIEKGDTVKLLENVNDHWVKIQYDDKIGYVAMSYLLPIE | -0.484 |
| HMASEKSEQLYQQMKLDIAGMPPDTRLPSIRALMRSYSVSQLLIDRTLGRLREEGALRKRFDGLYTYL | -2.06 |
| HMASELQQVQALLESQRYNEALILIETTIGKGASESTELLFARADVFASSGRHDEAEQAYREL | -0.0838 |
| HMASELVSADEKYSGLVSYLLGRVVVVDQIDHAIALAKKYRYSLRIVTLDGELLSPGGSMTGGAFKNS | -0.0628 |
| HMASEVEVPNVYGMPSSLAERELSAVGLLADYRSRTGTGQQPGTVVHVKPDAGTVVSRGSTVVLFIA | 0.00535 |
| HMASFASRAEEVMTKLLANGQPRIKEVADAMHLSSRTLQRRLEREGVSFAELLDRLRKRLAHDMLAHS | -0.813 |
| HMASFGDLSGLKRTYPPQGLPDASRIADFLIARNEGDLSVEQVKALERFLFEHPDHERTARLVAATRVPA | -0.0263 |
| HMASFTDAQALEVKDLYPDWSKIPEGTHLEAGQRVRYNGNLYKVRTGQAHDKQSTWTPTDAASLFEAID | 0.116 |
| HMASIEPLKTSIRIIWYINGEKDSETLLNTPPTAANKANAQKIADMVEQQIQMGIFNRDAVFPSSPKRQ | -1.87 |
| HMASIGVGTIVRVANAVNYNGVKVKAWFNDEGYEVTELSGDRAVLKHNGDLFDAFHVSDLEA | -1.29 |
| HMASINRIENKNGKVVYRIIVSLGYDKQGKKLKKTITYNVNQTATKKQQENEALKYALDIEDKIKNGHD | -1.44 |
| HMASITLDQAKEIALTHAGQTADAVWFEKAEQDYDDGILVYELEFAAKGTEYEYEIDAQTGAIREYKWDD | -0.0142 |
| HMASLSEREHDVAVLILQGKTYAEIGQAIFISPRTVEHHVASIRRRLEAKSRSDLIAKLRLTIGGTED | -2.18 |
| HMASPTKQLVLEALRASGQPMSSMELSAQIGVSRATAQRYLSTLASAGEVKIQLRYGTTGRPEQEFLAIE | -0.868 |
| HMASQFSLIVTQADAGMRLDSLLAVSGAYPSRSAAVKQIEAGKVLVNGLARSKRSIVAPGDTIVYEEIP | -0.584 |
| HMASQVERGAVVVTDQRIFFIGVSSEGIEVHGTKIFGMSEKAPLYSHMKGLKKGDSFQFNGLKYVIQDIY | -3.39 |
| HMASRKTERINRLIDVLQHATSRVPASVLSKILGIGERSVRNYVSEVNEQGQFRIDSSSGGYRLVA | -0.147 |
| HMASRTLSYSEFMSRVDSGDVTSVTLDGERIIMRTSNNQEFLSIKPEGEDISERLLAKNIEVRAEAQQ | -0.284 |

| Sequence | soluble fraction (log2) |
| --- | --- |
| HMASVGTHIKRLRAAKRMTQEELAEQLHVTRQAVSAWETGKALPDVEMLERIAAALDADVTEVIYGA | 0.0402 |
| HMATAATGIINNNYVNVRSGPATTYNIVGRLDQGSSIEILGSKNDWYQIKTKQLNGWVKNDFINLQK | 0.00222 |
| HMATETELNLQLMRIIDELHTDHNTWGSRKITDYLRLQGYEINRKRIQRLMDVMDIQVVYPK | -1.98 |
| HMATEVEVPDVVGRQMALATQLLEARKLRVNVAEIYDEKTPPGQVVSQSPEAGSSVKEERVVTIYVSR | -0.0321 |
| HMATGGKIYIGMNDNGKVVGVSDADKLLEDIPNKVRDVLGIIVDVNLLEENGLKYIEIDVPPYSN | -0.585 |
| HMATGIKAVDNVFGWMNLEQVAKTVGLDIPSVLRASGLPEDTPVDISIKKIPGVDDEELKDSLRQYIEKS | 0.0213 |
| HMATGTVKWFNPNKGFGFIQQDDASKDVFVHSNELNGVYINEGDKVEFDVVETEKGLSAQNIKK | -0.0828 |
| HMATHGRRAVIELREKIVSGELPGGTRLFEVSLAETLDISRTPVREALSRLAEEGLLDRLPNGGFVVRR | -0.503 |
| HMATIGVGSKVTLTTYVDWVGNGLLKTRDFYFVSELNGKRAVLRADSMNGAIYAAVNIDNLRI | -2.56 |
| HMATINGIEKYLSSGLIPGIGPHTAKKLVEKFGLDTLDIMQYNPDRLTEVEGIGDKKAAKISEAFQEQK | 0.0735 |
| HMATKVNSGVTVRDLAELLGLSSADLIKKLMTMGEMATLTQTLTDDSVKAIADEYDRKIEIVSAAQ | -0.0488 |
| HMATLTPLGRLQLARYHAQERATLAATAERFQVSTTTVRRWVGRYHQVVAAGGRPTTADMQDRPSRP | -2 |
| HMATMSIDERILEIRSRAGLTQQEMADRLFVTRQAVSRWERGETVPGIDTLRLIAEAFDVRVDQILEL | -1.69 |
| HMATQMSSARRGIATDEMKQVAKDEDVTLDWLLPKIAIGSIIIPSNNVRPQKIHNVGIGKGMKTKVN | 0.116 |
| HMATTTEPTSPPAATASLEAKINWLFLIFRNKKTVTASEQKFHAEDASTVVGKETLTDDGTTMTKGETAAG | 0.0862 |
| HMATVELELKPEELRAGMILTKDLISGTGMMLLNKGVTLDNVKVEAIQRYYQLDPPLHGVFALVHGK | -0.503 |
| HMATVGENIRRYRKAQNLSAAKLAEKVGLTQGAILHYERGIRTPGISQLEKIAHALNVSPRM | -0.0581 |
| HMATVPNVVGLSEEKAKSRLANNGLNVSVTTEEVSDKSKDGIVSSQTSEGDTVKQGATITITVGKYVEK | 0.14 |
| HMATYDIDALKVDLPSAKELAQFVYDKTDGLVSLDLIGKPKEEQYIVAKNALEGKKVPAEYLTGFNPY | 0.202 |
| HMATYTPYDKQGAKLWRVTAYLGMDSVTGKQRNMKKGGFKTKKEAQLYYNQVKLDFENGTLDQ | -1.22 |
| HMAVEQLKSQIGGFLKANREQSFSAQNMADGLRMNSAAGYQDVVNAMNALVRDGEAVEKDGQFSYNVN | 0.15 |
| HMAVETYRVKKSDTMQTIADRFGLSVEELLEYNQAYKTRELRARDILIIPSRKERKKLQQQKAQAAAQVVQ | -0.253 |
| HMAVGTASNLIGKDIEAYAPIDGSQSSDDTKTISGKVESVHIKDGVVYMNVKDSQSENIIEVEYGALIKVN | -0.498 |
| HMAVKPIDRLRSLMAESNVTDAELQKVVADKGHYAADAPIDSYSEKFISGWLIKYWSQILNLINADRTVL | -0.0363 |
| HMAVKTEHGRIWKALPEGQDGYREDVPMFTSKSMYDGSAGIGIFLIRLYEATSDERWLKEAEEAAAHII | 0.351 |

| Sequence | soluble fraction (log2) |
| --- | --- |
| HMAVLEGPAGKLGIVRFEANRSFTGMGHERFSSADQAFGTKPAAVVASRLFATGQVAGVHVYGNIITVELA | 0.528 |
| HMAVNDPDEKFIELGIPADWVQVVRKAGFQTVEALKTVENPNKLHQELSGLNKKMKLGLKTLSQDEVKDWF | 0.215 |
| HMAVPMTPGELVGSRVRVLWWKDGRGEVVALARGHQATLPARSEEPLRTGADAVVLEADEGTLVVTS | -0.0203 |
| HMAVSGRMMVYEYIRQQMREGSLLPGSVLDLPAISHKLGISNTPLRDSLIRLEAEGYLTIYPRSKVVIN | -2.87 |
| HMAVTGRVDLRIKPWGYVSVDGAAKVSSPPTMQLKLAPGRHEIEITNPAGAAVTKTVDVIAGKSVTVQHN | 0.0967 |
| HMAVTKVKVITESSNLNIRKGPGTDQPIVGKAAHHEIITLVNKSNDQWWLVRTNDGEEGYSYSRYLEPVT | -0.39 |
| HMAVVEVATTTATEYKVEKGHHFKVGDFVMFKTGAKSYAITAIDTTSPIFDKITVGTTLGEAIPVGGTLM | -1.38 |
| HMAVVIPDVKGMTIEEAAPFLAEKGIRYNIIDSVFSKDVDPGAIVEIVPTPGSKVKEGRIVFVTINAK | -0.538 |
| HMAVVQMVDRPGGLDELLKDVVRAGVNFANAYGRTASDGNSAFFVIDIQDIPGARQKLADVGLQILADEAV | -0.192 |
| HMAWAVDVGVVGLFPGKAVLVIDGGAPRTVPVGANVGGVRLLAVDQGSATVEIGGKRQRLAIGQHAH | -0.402 |
| HMAWIGEHTVTSEDTLSHIALKFYGHATPPYYKLIYEANKAIIGDNMNIIVPGQVLRIPALPEEL | -0.345 |
| HMAYLTVPAVIAKDTKKSIQLLESKGFEVVIQDSIYTDTLARGTVIKQLPDPNATVKINRTVYLTVNRYTP | -2.1 |
| HMAYQQITIKANVVNVRQGPGLSYDVMSQANKGETMNVISQKNNWYQVRLSGDKIGWVASWLVDNT | -1 |
| HMAYWVVKNNQVSLQINRSNYQITSTARALSNGNLGDEIDVKVLQSGVIKKAVVIGKGQVELLR | -1.89 |
| HMDAHIGTLTPRERETLHHLAIGHSNKVIAKKLNLAESTVKAYVQSILRKLGLSSRVQAAVYAIQHDIR | -0.205 |
| HMDAIDPKTVTSWADLWKPEYKSSLLLTDDAREVFQMALRKLGYSGNTTDPKEIEAAYNELKKLMPNVAAF | -0.0387 |
| HMDAIDQDGNHMTFKRWGEQLQEAFQALEAYDTDKAKTILNELIKFPIDSDLNNALKGILSNIDEMMA | -0.447 |
| HMDAINITTYKGQITLTGTKTGTLVGIYNTAGMLVKSMMSKGEKLYFDNLPSGVYIIKVGEEEPRKVQVI | -0.165 |
| HMDAKIEYTMSDLIENRLINSDDASMRREKLSEILKIGYGNGKKTLHKLNSFGITREEFEEAMKEVNSH | 0.0697 |
| HMDAKIKDYADAYAKMDPQQAASLFNNMTTGSLDLVAKILENIPANKRAAILEKMDVNAAAQVTEKMR | 0.117 |
| HMDAKSRFQEWVQAETGITPTYRIIGDSGPDHAKTFIAQVLLGERVVGEGVGSSKRAAEQAAAQAALAAM | 0.186 |
| HMDAMMQRLERLKELASSADGSKDYLILGPLRRDLAKLMALEDPKLRQGAEELDRKILAILS | -0.208 |
| HMDAPHPSVVQVYFESRDRSWTYYNDRFDLHEGDLVYVEGKLEGVRGRVVEVSYNFRIKLADYKRVIAVA | -3.66 |
| HMDASSAVQFGSLLRDARRRQGLSQAELGGDKYSGSYISHLESGRRVATPEVIEFLSRRLGVSPLEWGVS | -0.0679 |
| HMDASSTGFLGKHVQIVGLVSQPHLNGRRGVASRFDSNRRRYLVRLDEIDGHAEVVAFRPDNLVLSNLL | -0.573 |
